Experimental data taken from patent publication US20120219562A1 (AbbVie / Abbott, published 2012).
Where a chain is given by its changes, count along the chain named. Names and notes keep the numbering of the source.

T1: human interleukin 12 (recombinant human IL-12, p70 heterodimer) (human, UniProt P29459 23-219; P29460 23-328)
T1 construct: p35 and p40 linked by a disulfide bridge; also called hIL-12; rh IL-12
T1 sequence (looked up) 1: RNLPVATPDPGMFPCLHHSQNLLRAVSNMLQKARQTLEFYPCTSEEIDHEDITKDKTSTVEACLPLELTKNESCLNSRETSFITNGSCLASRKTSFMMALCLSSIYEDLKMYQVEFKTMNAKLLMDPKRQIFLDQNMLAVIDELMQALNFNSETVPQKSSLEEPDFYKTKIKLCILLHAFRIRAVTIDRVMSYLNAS
T1 sequence (looked up) 2: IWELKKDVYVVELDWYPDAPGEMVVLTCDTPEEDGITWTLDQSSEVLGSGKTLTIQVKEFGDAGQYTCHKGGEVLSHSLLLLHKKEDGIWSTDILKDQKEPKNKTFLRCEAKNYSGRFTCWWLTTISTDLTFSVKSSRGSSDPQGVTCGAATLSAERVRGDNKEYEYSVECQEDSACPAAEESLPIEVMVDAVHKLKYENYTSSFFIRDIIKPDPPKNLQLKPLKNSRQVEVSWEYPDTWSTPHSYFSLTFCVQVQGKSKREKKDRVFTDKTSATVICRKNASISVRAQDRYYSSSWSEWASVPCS

T2: human interleukin 12 (p70 heterodimer of p35 and p40) (human, UniProt P29459 23-219; P29460 23-328)
T2 construct: Recombinant human IL-12; also called hIL-12; IL-12
T2 sequence (looked up) 1: T1 sequence (looked up) 1
T2 sequence (looked up) 2: T1 sequence (looked up) 2

T3: human interleukin 12 (human, UniProt P29459 23-219; P29460 23-328)
T3 sequence (looked up) 1: T1 sequence (looked up) 1
T3 sequence (looked up) 2: T1 sequence (looked up) 2

B1: Y61 IgG (antibody, V domains shown)
VH: QVQLVQSGGGVVQPGRSLRLSCAASGFTFSSYGMHWVRQAPGKGLEWVAFIRYDGSNKYYADSVKGRFTISRDNSKNTLYLQMKSLRAEDTAVYYCKTHGSHDNWGQGTMVTVSS
VL: SYVLTQPPSVSGTPGQRVTISCSGGRSNIGSNTVKWYQQLPGTAPKLLIYGNDQRPSGVPDRFSGSKSGTSASLAITGVQAEDEADYYCQSYDRGTHPALLFGTGTKVTVLG
notes: IgG
B2: Y61-L50Y* IgG (antibody, V domains shown)
VH: B1 VH
VL: QSVLTQPPSVSGAPGQRVTISCSGSRSNIGSNTVKWYQQLPGTAPKLLIYYNDQRPSGVPDRFSGSKSGTSASLAITGLQAEDEADYYCQSYDRGTHPALLFGTGTKVTVL
B3: J695 (Y61-L94Y-L50Y IgG*) (antibody, V domains shown)
VH: B1 VH with Q6E, K84N
VL: B1 VL with S1Q, Y2S, T13A, G25S, G51Y, V79L, G95Y
notes: also called ABT-874
B4: SEQ ID NO: 518 (Y61, A at L50) (antibody, V domains shown)
VH: B1 VH
VL: B1 VL with G51A
B5: SEQ ID NO: 527 (Y61, Y at L53) (antibody, V domains shown)
VH: B1 VH
VL: B1 VL with Q54Y
B6: SEQ ID NO: 515 (Y61, Q at L50) (antibody, V domains shown)
VH: B1 VH
VL: B1 VL with G51Q
B7: SEQ ID NO: 530 (Y61, T at L53) (antibody, V domains shown)
VH: B1 VH
VL: B1 VL with Q54T
B8: SEQ ID NO: 524 (Y61, W at L50) (antibody, V domains shown)
VH: B1 VH
VL: B1 VL with G51W
B9: SEQ ID NO: 514 (Y61, N at L50) (antibody, V domains shown)
VH: B1 VH
VL: B1 VL with G51N
B10: SEQ ID NO: 531 (Y61, A at L53) (antibody, V domains shown)
VH: B1 VH
VL: B1 VL with Q54A
B11: SEQ ID NO: 528 (Y61, R at L53) (antibody, V domains shown)
VH: B1 VH
VL: B1 VL with Q54R
B12: SEQ ID NO: 521 (Y61, L at L50) (antibody, V domains shown)
VH: B1 VH
VL: B1 VL with G51L
B13: SEQ ID NO: 516 (Y61, T at L50) (antibody, V domains shown)
VH: B1 VH
VL: B1 VL with G51T
B14: SEQ ID NO: 532 (Y61, I at L53) (antibody, V domains shown)
VH: B1 VH
VL: B1 VL with Q54I
B15: SEQ ID NO: 520 (Y61, M at L50) (antibody, V domains shown)
VH: B1 VH
VL: B1 VL with G51M
B16: SEQ ID NO: 525 (Y61, F at L50) (antibody, V domains shown)
VH: B1 VH
VL: B1 VL with G51F
B17: SEQ ID NO: 523 (Y61, P at L50) (antibody, V domains shown)
VH: B1 VH
VL: B1 VL with G51P
B18: SEQ ID NO: 526 (Y61, S at L53) (antibody, V domains shown)
VH: B1 VH
VL: B1 VL with Q54S
B19: SEQ ID NO: 522 (Y61, I at L50) (antibody, V domains shown)
VH: B1 VH
VL: B1 VL with G51I
B20: SEQ ID NO: 519 (Y61, V at L50) (antibody, V domains shown)
VH: B1 VH
VL: B1 VL with G51V
B21: SEQ ID NO: 533 (Y61, P at L53) (antibody, V domains shown)
VH: B1 VH
VL: B1 VL with Q54P
B22: Joe9 wt IgG1 (antibody, V domains shown)
VH: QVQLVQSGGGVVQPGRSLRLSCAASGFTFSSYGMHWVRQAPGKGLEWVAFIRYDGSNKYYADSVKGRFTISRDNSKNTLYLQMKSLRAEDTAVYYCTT
VL: SYVLTQPPSVSGTPGQRVTISCSGGRSNIGSNTVKWYQQLPGTAPKLLIYGNDQRPSGVPDRFSGSKSGTSASLAITGVQAEDEADYYCQSYDSSLRG
B23: 136-14 (antibody, V domains shown)
VH: B1 VH with K97T
VL: SYVLTQPPSVSGTPGQRVTISCSGGRSNIGSNTVKWYQQLPGTAPKLLIYGNDQRPSGVPDRFSGSKSGTSASLAITGVQAEDEADYYCQTYDRGFTGSRVFGTGTKVTVL
B24: 136-16 (antibody, V domains shown)
VH: B1 VH with K97T
VL: B23 VL with T91S, G95R
B25: 136-17 (antibody, V domains shown)
VH: B1 VH with K97T
VL: B23 VL with T91S, R94W, G95N
B26: 136-21 (antibody, V domains shown)
VH: B1 VH with K97T
VL: B23 VL with T91S, R94N
B27: 73-C1 (antibody, V domains shown)
VH: B1 VH with K97T, H99S, H102Y, N104Y
VL: B1 VL with Q90H, R94S, G95R, T96F, H97T, P98G, A99S, L100R, L101V
B28: 73-B1 (antibody, V domains shown)
VH: B1 VH with K97T, H99S, H102Y, N104Y
VL: B1 VL with Q90H, R94S, G95D, T96F, H97T, P98G, A99S, L100R, L101V
B29: 136-10 (antibody, V domains shown)
VH: B1 VH with K97T, N104D
VL: B23 VL with T91S
B30: 73-B6 (antibody, V domains shown)
VH: B1 VH with K97T, H99S, H102Y, N104Y
VL: B1 VL with Q90H, R94N, G95R, T96F, H97T, P98G, A99S, L100R, L101V
B31: 136-15M1 (antibody, V domains shown)
VH: B1 VH with K97A, T98K
VL: B1 VL with T96F, H97T, P98G, A99S, L100R, L101V
B32: 136-15 (antibody, V domains shown)
VH: B1 VH
VL: B1 VL with G25S, S91T, R94K, T96F, H97T, P98G, A99S, L100S, L101V

target: T1, human interleukin 12 (recombinant human …); experiment: SPR (BIAcore), off-rate from human IL-12

koff	Binder
0.00015 s⁻¹	B1
6.98e-05 s⁻¹	B2
5.14e-05 s⁻¹	B3

target: T2, human interleukin 12 (p70 heterodimer …); experiment: SPR (BIAcore), off-rate

koff	Binder
0.000372 s⁻¹	B4
0.000733 s⁻¹	B5
0.000348 s⁻¹	B6
0.000834 s⁻¹	B7
0.000382 s⁻¹	B8
0.000305 s⁻¹	B9
0.000554 s⁻¹	B10
0.000614 s⁻¹	B11
0.000616 s⁻¹	B12
0.000272 s⁻¹	B13
0.000855 s⁻¹	B14
0.000953 s⁻¹	B15
0.0348 s⁻¹	B16
0.00041 s⁻¹	B17
0.000866 s⁻¹	B18
0.0012 s⁻¹	B19
0.000385 s⁻¹	B20
0.000974 s⁻¹	B21

target: T3, human interleukin 12; experiment: cell-based or functional assay

PHA assay IC50	Binder
500 nM	B22
100 nM	B23
5 nM	B24
7 nM	B25

target: T1, human interleukin 12 (recombinant human …); experiment: cell-based or functional assay

PHA assay IC50	IFN gamma IC50	Binder
0.13 nM	–	B1
0.02 nM	0.03 nM	B2

target: T3, human interleukin 12; experiment: SPR (BIAcore)

koff	Binder
0.0011 s⁻¹	B23
0.00042 s⁻¹	B26
0.00271 s⁻¹	B27
0.00061 s⁻¹	B24
0.00325 s⁻¹	B28
0.0014 s⁻¹	B29
2.9e-05 s⁻¹	B25
0.00251 s⁻¹	B30

target: T3, human interleukin 12; experiment: RB assay (IL-12 receptor binding)

IC50	Binder
0.3 nM	B23
2 nM	B26
> 10 nM	B27
0.3 nM	B24
> 10 nM	B28
0.4 nM	B31
2 nM	B29
2 nM	B25
> 10 nM	B30

target: T1, human interleukin 12 (recombinant human …); experiment: cell-based or functional assay; remark: another data set of the same source

PHA assay IC50 (M) p70:p40 1:0	PHA assay IC50 (M) p70:p40 1:50	Binder
1.8e-10 M	1.8e-10 M	B1
2e-09 M	–	B32
